Laboratory results reported in patent US20250296971A1, “GASTRIC INHIBITORY PEPTIDE RECEPTOR LIGANDS” (priority 2021, published 2025).
*1 amine or outer side, *2 acyl side, *3 side chain or, on linkers, in order; H or OH if unused. Bridges are numbered along the chain shown (N, C = ends). Where no end group is shown, it is not given here. [ ]: non-standard residue; d: D form. The star is where a group is joined. NOPO = NOPO chelator, O=C(CCP(=O)(O)CN1CCN(CP(=O)(O)CO)CCN(CP(=O)(O)CO)CC1)*; dE(AGLU) = D-glutamic acid bearing 1-amino-1-deoxy-D-glucitol; Pro(trans-4-NH2) = O=C([C@@H]1C[C@@H](N[*:3])CN1[*:1])[*:2]; DOTA = O=C(O)CN1CCN(CC(=O)O)CCN(CC(=O)*)CCN(CC(=O)O)CC1; N4Ac = bis-(2-amino-ethylamine)-methyl-propionic acid; 2Lut = 2,6-lutidylidene bridge between two thiols; N(CH2CH2CO)Gly = O=C(CN(CCC(=O)[*:3])[*:1])[*:2]; Trp(5-Cl) = N[C@@H](Cc1c[nH]c2ccc(Cl)cc12)C(=O)O; Pyridine(2,6-diCH2) = c1cc(C[*:1])nc(C[*:2])c1; APAc = 4-amino-1-carboxymethylpiperidine; mXylylene = c1cc(C[*:1])cc(C[*:2])c1; Glutaryl = O=C(CCCC(=O)[*:2])[*:1]; AGLU = 1-amino-1-deoxy-D-glucitol; Hyp = O=C(O)[C@@H]1C[C@@H](O)CN1; pS = N[C@@H](COP(=O)(O)O)C(=O)O; hCys = N[C@@H](CCS)C(=O)O; hSer = N[C@@H](CCO)C(=O)O; Ac5c = NC1(C(=O)O)CCCC1; Api = NC1(C(=O)O)CCNCC1; Dab = NCC[C@H](N)C(=O)O; Thp = NC1(C(=O)O)CCOCC1; Nlys = NCCCCNCC(=O)O

B1: Ac-Hse-Trp-5Clw-Hyp-Glu-leu-[Cys(2Lut)-Thp-Leu-Ile-Cys]-NH2 (peptide)
peptide: Ac-[hSer]W[Trp(5-Cl)][Hyp]E[dL]C[Thp]LIC-NH2
modifications: linker 7-11 via Pyridine(2,6-diCH2)
SMILES: CC[C@H](C)[C@@H]1NC(=O)[C@H](CC(C)C)NC(=O)C2(CCOCC2)NC(=O)[C@@H](NC(=O)[C@@H](CC(C)C)NC(=O)[C@H](CCC(=O)O)NC(=O)[C@@H]2C[C@@H](O)CN2C(=O)[C@H](Cc2c[nH]c3ccc(Cl)cc23)NC(=O)[C@H](Cc2c[nH]c3ccccc23)NC(=O)[C@H](CCO)NC(C)=O)CSCc2cccc(n2)CSC[C@@H](C(N)=O)NC1=O
B2: Ac-Pse-Trp-5Clw-Hyp-Glu-leu-[Cys(2Lut)-Thp-Leu-Ile-Cys]-NH2 (peptide)
peptide: Ac-[pS]W[Trp(5-Cl)][Hyp]E[dL]C[Thp]LIC-NH2
modifications: linker 7-11 via Pyridine(2,6-diCH2)
SMILES: CC[C@H](C)[C@@H]1NC(=O)[C@H](CC(C)C)NC(=O)C2(CCOCC2)NC(=O)[C@@H](NC(=O)[C@@H](CC(C)C)NC(=O)[C@H](CCC(=O)O)NC(=O)[C@@H]2C[C@@H](O)CN2C(=O)[C@H](Cc2c[nH]c3ccc(Cl)cc23)NC(=O)[C@H](Cc2c[nH]c3ccccc23)NC(=O)[C@H](COP(=O)(O)O)NC(C)=O)CSCc2cccc(n2)CSC[C@@H](C(N)=O)NC1=O
B3: Ac-Glu-Trp-5Clw-Hyp-Glu-leu-[Cys(2Lut)-Thp-Leu-Ile-Cys]-NH2 (peptide)
peptide: Ac-EW[Trp(5-Cl)][Hyp]E[dL]C[Thp]LIC-NH2
modifications: linker 7-11 via Pyridine(2,6-diCH2)
SMILES: CC[C@H](C)[C@@H]1NC(=O)[C@H](CC(C)C)NC(=O)C2(CCOCC2)NC(=O)[C@@H](NC(=O)[C@@H](CC(C)C)NC(=O)[C@H](CCC(=O)O)NC(=O)[C@@H]2C[C@@H](O)CN2C(=O)[C@H](Cc2c[nH]c3ccc(Cl)cc23)NC(=O)[C@H](Cc2c[nH]c3ccccc23)NC(=O)[C@H](CCC(=O)O)NC(C)=O)CSCc2cccc(n2)CSC[C@@H](C(N)=O)NC1=O
B4: HO-Succinyl-Trp-5Clw-Pro-Glu-leu-[Cys(3MeBn)-Thp-Leu-Ile-Cys]-NH2 (peptide)
peptide: W[Trp(5-Cl)]PE[dL]C[Thp]LIC-NH2
modifications: linker 6-10 via mXylylene; not fully specified (N-terminus); printed as HO-Succinyl-Trp-5Clw-Pro-Glu-leu-[Cys(3MeBn)-Thp-Leu-Ile-Cys]-NH2
B5: Ac-Asn-Trp-5Clw-Hyp-Glu-leu-[Cys(2Lut)-Thp-Leu-Ile-Cys]-NH2 (peptide)
peptide: Ac-NW[Trp(5-Cl)][Hyp]E[dL]C[Thp]LIC-NH2
modifications: linker 7-11 via Pyridine(2,6-diCH2)
SMILES: CC[C@H](C)[C@@H]1NC(=O)[C@H](CC(C)C)NC(=O)C2(CCOCC2)NC(=O)[C@@H](NC(=O)[C@@H](CC(C)C)NC(=O)[C@H](CCC(=O)O)NC(=O)[C@@H]2C[C@@H](O)CN2C(=O)[C@H](Cc2c[nH]c3ccc(Cl)cc23)NC(=O)[C@H](Cc2c[nH]c3ccccc23)NC(=O)[C@H](CC(N)=O)NC(C)=O)CSCc2cccc(n2)CSC[C@@H](C(N)=O)NC1=O

biological target: human Gastric Inhibitory Peptide Receptor (human) (UniProt P48546); test: FACS competition with GIP-057 on CHO-K1-hGIPR cells; pIC50 category A: >8.0
Sequence (P48546 22-466 limits assumed): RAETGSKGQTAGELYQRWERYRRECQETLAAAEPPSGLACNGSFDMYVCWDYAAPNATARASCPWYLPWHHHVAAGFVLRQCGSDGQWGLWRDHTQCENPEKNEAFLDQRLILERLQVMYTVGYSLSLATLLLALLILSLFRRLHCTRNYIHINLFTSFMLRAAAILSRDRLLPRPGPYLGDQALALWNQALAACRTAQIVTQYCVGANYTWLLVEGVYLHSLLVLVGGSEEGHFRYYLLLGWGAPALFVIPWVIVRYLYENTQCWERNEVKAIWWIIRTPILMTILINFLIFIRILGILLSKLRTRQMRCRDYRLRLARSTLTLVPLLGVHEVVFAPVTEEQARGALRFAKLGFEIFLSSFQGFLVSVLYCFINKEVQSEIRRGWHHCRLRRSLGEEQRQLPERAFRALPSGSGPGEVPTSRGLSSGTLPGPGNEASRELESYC

pIC50 [pic50]	Binder
> 8	{AGLU-Glutaryl}-DW[Trp(5-Cl)][Pro(trans-4-NH2)]E[dL]C[Api](N4Ac)LIC-{APAc-dE(AGLU)-NH2} (linker 7-11 via Pyridine(2,6-diCH2)) [AGLU-Glutar-Asp-Trp-5Clw-Tap-Glu-leu-[Cys(2Lut)-Apc(N4Ac)-Leu-Ile-Cys]-APAc-glu(AGLU)-NH2]
> 8	W[Trp(5-Cl)][Pro(trans-4-NH2)]E[dL]C[Api](DOTA)LIC-{APAc-dE(AGLU)-NH2} (linker 6-10 via 2Lut; not fully specified (N-terminus)) [HO-Succinyl-Trp-5Clw-Tap-Glu-leu-[Cys(2Lut)-Apc(DOTA)-Leu-Ile-Cys]-APAc-glu(AGLU)-NH2]
> 8	B1
> 8	{DOTA-dE(AGLU)}-DW[Trp(5-Cl)][Pro(trans-4-NH2)]E[dL]C[Thp]LIC-{APAc-dE(AGLU)-NH2} (linker 7-11 via Pyridine(2,6-diCH2)) [DOTA-glu(AGLU)-Asp-Trp-5Clw-Tap-Glu-leu-[Cys(2Lut)-Thp-Leu-Ile-Cys]-APAc-glu(AGLU)-NH2]
> 8	B2
> 8	B3
> 8	B4
> 8	Ac-DW[Trp(5-Cl)][Nlys]E[dL]C[Thp]LIC-NH2 (linker 7-11 via Pyridine(2,6-diCH2)) [Ac-Asp-Trp-5Clw-Nlys-Glu-leu-[Cys(2Lut)-Thp-Leu-Ile-Cys]-NH2]
> 8	Ac-DW[Trp(5-Cl)][Hyp]E[dL]C[Ac5c]LIC-NH2 (linker 7-11 via Pyridine(2,6-diCH2)) [Ac-Asp-Trp-5Clw-Hyp-Glu-leu-[Cys(2Lut)-Eca-Leu-Ile-Cys]-NH2]
> 8	{AGLU-Glutaryl}-DW[Trp(5-Cl)][Pro(trans-4-NH2)]E[dL]C[Api](NOPO)LIC-{APAc-dE(AGLU)-NH2} (linker 7-11 via Pyridine(2,6-diCH2)) [AGLU-Glutar-Asp-Trp-5Clw-Tap-Glu-leu-[Cys(2Lut)-Apc(NOPO)-Leu-Ile-Cys]-APAc-glu(AGLU)-NH2]
> 8	{AGLU-Glutaryl}-DW[Trp(5-Cl)][Pro(trans-4-NH2)]E[dL]C[Dab](DOTA)LIC-{APAc-dE(AGLU)-NH2} (linker 7-11 via Pyridine(2,6-diCH2)) [AGLU-Glutar-Asp-Trp-5Clw-Tap-Glu-leu-[Cys(2Lut)-Dab(DOTA)-Leu-Ile-Cys]-APAc-glu(AGLU)-NH2]
> 8	Ac-DW[Trp(5-Cl)][Hyp]D[dL]C[Thp]LIC-NH2 (linker 7-11 via Pyridine(2,6-diCH2)) [Ac-Asp-Trp-5Clw-Hyp-Asp-leu-[Cys(2Lut)-Thp-Leu-Ile-Cys]-NH2]
> 8	Ac-DW[Trp(5-Cl)][N(CH2CH2CO)Gly]E[dL]C[Thp]LIC-NH2 (linker 7-11 via Pyridine(2,6-diCH2)) [Ac-Asp-Trp-5Clw-Nglu-Glu-leu-[Cys(2Lut)-Thp-Leu-Ile-Cys]-NH2]
> 8	B5
> 8	Ac-DW[Trp(5-Cl)][Hyp]N[dL]C[Thp]LIC-NH2 (linker 7-11 via Pyridine(2,6-diCH2)) [Ac-Asp-Trp-5Clw-Hyp-Asn-leu-[Cys(2Lut)-Thp-Leu-Ile-Cys]-NH2]
> 8	Ac-DW[Trp(5-Cl)][Hyp]E[dL][hCys][Thp]LI[hCys]-NH2 (linker 7-11 via Pyridine(2,6-diCH2)) [Ac-Asp-Trp-5Clw-Hyp-Glu-leu-[Hcy(2Lut)-Thp-Leu-Ile-Hcy]-NH2]
